This note sets out measurements from PMC6771245, “CMKLR1-targeting peptide tracers for PET/MR imaging of breast cancer” (Theranostics, 2019).

Values joined by “and” are separate entries in the source; they are usually repeats but may differ in a detail not shown here. Identical values can stand only once. *1 amine or outer side, *2 acyl side, *3 side chain or, on linkers, in order; H or OH if unused. Where a SMILES comes first, the peptide text is derived from it. [ ]: non-standard residue; d: D form. The star is where a group is joined. X1 = O=C(O)CN1CCN(CC(=O)O)CCN(CC(=O)NCCCOCCOCCOCCCN*)CCN(CC(=O)O)CC1; DOTA = O=C(O)CN1CCN(CC(=O)O)CCN(CC(=O)*)CCN(CC(=O)O)CC1; NH(CH2)9CO = O=C(CCCCCCCCCN[*:1])[*:2]; Hyp = O=C(O)[C@@H]1C[C@@H](O)CN1; Tic = O=C(O)[C@@H]1Cc2ccccc2CN1; Cha = N[C@@H](CC1CCCCC1)C(=O)O; Cit = NC(=O)NCCC[C@H](N)C(=O)O; Suc = O=C(CCC(=O)[*:2])[*:1]; Octanoyl = CCCCCCCC(=O)*; Ahx = NCCCCCC(=O)O

Data set [1] can be described thus: Determination of LogD7.4 values. The data set is classed as physicochemical. As to conditions: shake-flask octanol/PBS pH 7.4; 3 µL of 1 mM solution, 300 µL per phase, vortex 1 min, centrifuged 5 min 10,000 x g; HPLC peak area octanol/buffer, both phases analysed. As for the experimental part:
Compounds (3 µL of a 1 mM solution) were diluted into 300 µL PBS pH 7.4 or octanol and mixed. 300 µL of the other phase was added, followed by vigorous mixing using a vortex shaker for one minute. The two phases were centrifuged (5 min, 10,000 x g). Following separation, 25 µL aliquots were removed for HPLC analysis. LogD7.4 was calculated by taking the logarithm of the ratio of the high-performance liquid chromatography (HPLC) peak area of each compound in octanol to the corresponding peak area in buffer. Consequently, logD7.4 values were based on analysis of both aqueous and octanol fractions.

Data set [2] has as its target T1, huCMKLR1 (Homo sapiens, UniProt Q99788).
T1 construct: expressed in transfected cells; host or cells: HEK293a (membrane preparations)
T1 sequence (Q99788 1-373): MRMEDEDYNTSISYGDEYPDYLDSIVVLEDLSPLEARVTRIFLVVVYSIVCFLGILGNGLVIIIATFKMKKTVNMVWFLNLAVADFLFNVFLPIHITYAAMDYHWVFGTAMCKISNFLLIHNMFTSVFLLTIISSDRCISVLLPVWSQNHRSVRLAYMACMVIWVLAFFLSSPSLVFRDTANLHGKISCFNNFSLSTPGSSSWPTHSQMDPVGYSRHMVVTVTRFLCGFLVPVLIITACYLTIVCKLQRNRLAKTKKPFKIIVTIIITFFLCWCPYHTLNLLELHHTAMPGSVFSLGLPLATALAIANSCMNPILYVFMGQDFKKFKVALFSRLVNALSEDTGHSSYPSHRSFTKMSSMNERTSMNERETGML
Kind of data set: Competitive radioligand binding with ^125I-chemerin-9, membranes of HEK293a cells stably expressing huCMKLR1 and Gα16. The settings on record: unlabeled compound; radioligand ^125I-chemerin-9, 5 µg membrane, 1 h 37 °C; three independent experiments, mean ± SD; read-out: competition binding IC50 w/o ^natGa. As to the method:
(§1) For in vitro analysis, HEK293a stably transfected with huCMKLR1 and Gα16 were used. For the in vivo mouse model, the human breast cancer cell line DU4475 with endogenous CMKLR1 expression and the target-negative human lung carcinoma cell line A549 were used. All cell lines were obtained from ATCC/LGC Standards (Wesel, Germany) and were cultured in RPMI1640 medium containing 10% fetal bovine serum (both from Biochrom, Berlin, Germany) and, in case of transfected cells, selection agents G418 (Biochrom, Berlin, Germany) and zeocin (Invitrogen, Carlsbad, USA).
Competitive binding studies were performed with cell membrane preparations. […] […].
(§2) All statistical analyses were performed using GraphPad Prism 5.04. EC50/IC50 values were determined by nonlinear sigmoidal curve fitting with variable slope setting, and normalized response for competitive binding results. Multiple group comparisons were done by a two-way ANOVA and Bonferroni post hoc test. All presented data are based on independent experiments. Normalizations and statistics are further defined in each figure legend.

Data set [3] has as its target T1, huCMKLR1. Description: Calcium mobilization assay. The data set is classed as cell-based. The settings on record: HEK293a huCMKLR1 Gα16 cells, Fluo-4 AM; three independent experiments, mean ± SD; read-out: Ca^2+ assay EC50. As to the method: as §1
Optical ViewPlate 96-well microplates (PerkinElmer, Waltham, USA) were coated with poly-D-lysine (10 µg/mL, 50 µL/well) for 30 minutes at 37 °C, washed with PBS and air dried before seeding 40,000 HEK293a huCMKLR1 Gα16 cells per well. The next day, cells were starved with serum-free medium for 30 minutes and incubated with loading medium consisting of serum-free medium with 2.5 mM probenicid (Sigma-Aldrich, St. Louis, USA) and 2 µM Fluo-4 AM (Thermo Fisher Scientific, Waltham, USA). After a loading time of 45 minutes, cells were washed with 100 μL C1 buffer (130 mM NaCl, 5 mM KCl, 10 mM 4-(2-hydroxyethyl)-1-piperazineethanesulfonic acid [HEPES], 2 mM CaCl2, 10 mM glucose) followed by 20 minutes of incubation in the dark. After another washing and incubation cycle, the cell plate was placed into the CellLux Calcium Imaging System (PerkinElmer, Waltham, USA) and the assay was performed automatically according to the following protocol. After a baseline measurement for 30 seconds, the ligands (prepared in C1 buffer with 0.5% BSA in double concentration and pipetted in a U-bottom plate) were added on top of the cells and the fluorescence intensity was recorded for further 60 seconds. Obtained raw data were analyzed using AssayPro (PerkinElmer, Waltham, USA). After spatial uniformity correction, maximum response values (F) were normalized to baseline values (F0) of each well using the following equation:
response = ΔF/F0 = (F - F0)/F0.
as §2
(In general: Calcium assays in cells follow changes in intracellular calcium, usually with a dye or a luminescent sensor.)

A short description of another data set: in vivo. The settings on record: female, athymic NMRI-Foxn1^nu/Foxn1^nu, mouse, iv, 1 MBq, total radioactivity. The text has this: (§3) For in vivo experiments, at least 8-week-old female athymic NMRI-Foxn1^nu /Foxn1^nu mice (Janvier Labs, Saint-Berthevin, France) were used. Animal care followed institutional guidelines and all experiments were approved by local animal research authorities. For the generation of tumor xenografts, 5 x 10^6 cells of both DU4475 and A549 cells were inoculated subcutaneously into the right and left shoulder, respectively (1:1 phosphate-buffered saline [PBS]/Matrigel Basement Membrane Matrix High Concentration, Corning, Corning, USA). Part of the animals received SW13 lung cancer cells as a CMKLR1-negative control tumor. For the analysis of biodistribution, only data of […] and A549 xenograft tumors are used. Tumors were allowed to grow for two to four weeks (tumor volume > 100 mm^3) after cell inoculation.
(§4) Radiolabeling of peptide-DOTA conjugates was carried out manually using ^177Lu from ITG Isotope Technologies Garching GmbH (Garching, Germany). A total of 50 µL (stock solution of peptide at 1 µg/µL in 10% DMSO in water) was added to 200 µL of acetate buffer (sodium acetate/acetic acid buffer, 0.4 M, pH 5.0) and 120 µL of gentisic solution prepared by dissolving 50 mg of gentisic acid in 1 mL of acetate buffer. The resulting mixture was then added to 35 µL of ^177Lu (1 GBq in aqueous 0.04 M HCl) and the reaction mixture was heated at 96 °C for 30 minutes followed by cooling for 10 minutes at room temperature. The product was then diluted with 5 mL of saline and used directly for animal experiments.
(§5) Tumor-bearing mice were injected with approximately 10 MBq of ^68Ga-labeled DOTA-peptide or 1 MBq of ^177Lu-labeled DOTA-peptide to the tail vein via a catheter. […] Tumor, blood, stomach, pancreas, small intestine, colon, liver, spleen, kidney, heart, lung, muscle and femur samples were weighed and uptake of radioactivity was measured by a gamma counter. To determine the effect of unlabeled ligand on the tumor uptake, 200 nmol CG34 peptide (100-fold excess) was co-injected.

Data set [4] deals with DU4475/A549 xenograft model. Kind of data set: in vivo. As to conditions: mouse.
Excerpt: as §3, §4, §5

A word on the logD: it is the decadic logarithm of the distribution of all forms, ionised or not, between an organic phase and buffer at a given pH. Read a high logD as a more lipophilic compound. By EC50 is commonly meant the concentration needed to bring the measured effect to its halfway point. As to `C[C@@H](NC(=O)[C@H](Cc1ccccc1)NC(=O)[C@H](CCCNC(N)=O)NC(=O)CNC(=O)[C@@H]1C[C@@H](O)CN1C(=O)[C@H](CC1CCCCC1)NC(=O)[C@H](Cc1ccc(O)cc1)NC(=O)CCCCCNC(=O)CN1CCN(CC(=O)O)CCN(CC(=O)O)CCN(CC(=O)O)CC1)C(=O)N1Cc2ccccc2C[C@H]1C(=O)N[C@@H](CO)C(=O)O` [DOTA-AHX-CG34] ({DOTA-Ahx}-Y[Cha][Hyp]G[Cit]F[dA][Tic]S-OH), in data set [1], the logD was -0.96 ± 0.2. Besides, on huCMKLR1 [2], the IC50 is 1.05 ± 0.81 nM. Further, at huCMKLR1 [3], the concentration for a half-maximal effect (EC50) was determined as 0.79 ± 0.28 nM.
On to `C[C@@H](NC(=O)[C@H](Cc1ccccc1)NC(=O)[C@H](CCCNC(N)=O)NC(=O)CNC(=O)[C@@H]1C[C@@H](O)CN1C(=O)[C@H](CC1CCCCC1)NC(=O)[C@H](Cc1ccc(O)cc1)NC(=O)CCCCCCCCCNC(=O)CN1CCN(CC(=O)O)CCN(CC(=O)O)CCN(CC(=O)O)CC1)C(=O)N1Cc2ccccc2C[C@H]1C(=O)N[C@@H](CO)C(=O)O` [DOTA-ADX-CG34] ({DOTA}-[NH(CH2)9CO]Y[Cha][Hyp]G[Cit]F[dA][Tic]S-OH), for which, in data set [1], the logD is 1.35 ± 0.31. In addition, the IC50 on huCMKLR1 [2] came to 0.65 ± 0.15 nM. The half-maximal effective concentration (EC50) at huCMKLR1 [3] is 0.65 ± 0.1 nM.
In the case of `CCCCCCCC(=O)NCCCC[C@H](NC(=O)CN1CCN(CC(=O)O)CCN(CC(=O)O)CCN(CC(=O)O)CC1)C(=O)N[C@@H](Cc1ccc(O)cc1)C(=O)N[C@@H](CC1CCCCC1)C(=O)N1C[C@H](O)C[C@H]1C(=O)NCC(=O)N[C@@H](CCCNC(N)=O)C(=O)N[C@@H](Cc1ccccc1)C(=O)N[C@H](C)C(=O)N1Cc2ccccc2C[C@H]1C(=O)N[C@@H](CO)C(=O)O` [DOTA-KCap-CG34] ({DOTA}-K(Octanoyl)Y[Cha][Hyp]G[Cit]F[dA][Tic]S-OH), the pH-dependent lipophilicity (logD) in data set [1] stood at 1.29 ± 0.68. For the same molecule, the IC50 on huCMKLR1 [2] is 0.44 ± 0.16 nM. Also, the concentration for a half-maximal effect (EC50) at huCMKLR1 [3] was 1.34 ± 0.14 nM.
As to `C[C@@H](NC(=O)[C@H](Cc1ccccc1)NC(=O)[C@H](CCCNC(N)=O)NC(=O)CNC(=O)[C@@H]1C[C@@H](O)CN1C(=O)[C@H](CC1CCCCC1)NC(=O)[C@H](Cc1ccc(O)cc1)NC(=O)CCC(=O)NCCCOCCOCCOCCCNC(=O)CN1CCN(CC(=O)O)CCN(CC(=O)O)CCN(CC(=O)O)CC1)C(=O)N1Cc2ccccc2C[C@H]1C(=O)N[C@@H](CO)C(=O)O` [DOTA-TTDS-CG34] ({X1-Suc}-Y[Cha][Hyp]G[Cit]F[dA][Tic]S-OH), the log distribution coefficient (logD) in data set [1] was -1.01 ± 0.39. In addition, on huCMKLR1 [2], the IC50 was 0.66 nM and ~0.6 nM.
The molecule `CSCC[C@H](NC(=O)CNC(=O)[C@@H]1CCCN1C(=O)[C@H](CC1CCCCC1)NC(=O)[C@H](Cc1ccc(O)cc1)NC(=O)CCCCCNC(=O)CN1CCN(CC(=O)O)CCN(CC(=O)O)CCN(CC(=O)O)CC1)C(=O)N[C@@H](Cc1ccc(O)cc1)C(=O)N[C@@H](C)C(=O)N[C@@H](Cc1ccccc1)C(=O)N[C@H](Cc1ccccc1)C(=O)O` [DOTA-AHX-CG36] ({DOTA-Ahx}-Y[Cha]PGMYAF[dF]-OH) registered a logD in data set [1] of 2.27 ± 0.47. Besides, the IC50 at huCMKLR1 [2] came to 0.13 ± 0.08 nM. At huCMKLR1 [3], the EC50 is 1.53 nM.
The tissue uptake is the share of the injected amount in each gram of the tissue. Turning to `C[C@@H](NC(=O)[C@H](Cc1ccccc1)NC(=O)[C@H](CCCNC(N)=O)NC(=O)CNC(=O)[C@@H]1C[C@@H](O)CN1C(=O)[C@H](CC1CCCCC1)NC(=O)[C@H](Cc1ccc(O)cc1)NC(=O)CCCCCNC(=O)CN1CCN(CC(=O)O)CCN(CC(=O)O)CCN(CC(=O)O)CC1)C(=O)N1Cc2ccccc2C[C@H]1C(=O)N[C@@H](CO)C(=O)O` [[^177Lu]Lu-DOTA-AHX-CG34, metal not drawn] ({DOTA-Ahx}-Y[Cha][Hyp]G[Cit]F[dA][Tic]S-OH), the tissue uptake at 1 h in “in vivo” (A549 tumor uptake) amounted to 2.3 %ID/g; in the data set “in vivo” (DU4475 tumor uptake) it was 3.3 %ID/g; in “in vivo” (kidneys uptake), 4.7 %ID/g; in “in vivo” (lung uptake), 5.6 %ID/g; in the data set “in vivo” (spleen uptake) it was 5.8 %ID/g. The tissue uptake at 24 h in “in vivo” (A549 tumor uptake) stood at 0.4 %ID/g; in the data set “in vivo” (DU4475 tumor uptake), 2.1 %ID/g; in “in vivo” (kidneys uptake), 1 %ID/g; in the data set “in vivo” (spleen uptake), 1.7 %ID/g. In addition, in data set [4], the “DU4475 uptake after 24 hours as % of the 1 h-value” is on record as “approx. 64%”. Further, in data set [4], the “decrease of DU4475 tumor signal from one to 24 hours p.i.” value is recorded as “approximately 36%”. Also, in data set [4], the “higher uptake in DU4475 than A549” value was 1.4 fold.
